Test results: patent publication US20190041390A1 (UNIVERSITY OF TENNESSEE RESEARCH FOUNDATION, published 2019)

Target: T1, streptavidin/gold (10 nm-diameter; Electron Microscopy Sciences) (UniProt P22629 37-163, limits assumed, conjugated to 10 nm gold particles)
T1 construct: Detection reagent; also called avidin-conjugated gold particles; gold particles
Assay: immunogold electron microscopy control, fibrils with recruited AL1κ and no mAb added
Text: Immunogold electron microscopy was used to investigate the binding sites of AL1κ LC on rVλ6Wil fibrils (FIG. 6A and FIG. 6B). The distribution of AL1κ LC (evidenced by the presence of anti-κ LC mAb-bound 10 nm-diameter gold particles; arrows) was generally at the ends of the rVλ6Wil fibrils and less commonly seen along the length of the fibril (arrowheads; FIG. 6A). A sample of fibrils with AL1κ LC recruited but with no mAb added served as a non-specific binding control. No gold particles were observed associated with the majority of fibrils in this preparation (FIG. 6B).
Twenty-five μg of rVλ6Wil fibrils were mixed with 1 μg […] in 200 μL of tris-buffered saline (TBS) with 0.05% tween-20 (TBST) in a 1.5 mL-volume microcentrifuge tube. The sample was rotated at RT for 24 h before being centrifuged at 20,000×g for 8 min, and the supernatant was discarded. The pellet was washed in 400 μL TBST twice by centrifugation, before the sample was split into two 200 μL-volume samples in TBST. To one sample, 10 μg each of two biotinylated anti-κ mAbs (αLKC8 and 14-6E4) were added; no antibodies were added to the other sample. Both samples were rotated 2 h at RT prior to two washes by centrifugation, as before. The pellets were resuspended in […] TBST with addition of a 1:4 dilution of streptavidin/gold stock solution ([…]; Electron Microscopy Sciences, Hatfield, Pa.). […]

T1 sequence (P22629 37-163 limits assumed): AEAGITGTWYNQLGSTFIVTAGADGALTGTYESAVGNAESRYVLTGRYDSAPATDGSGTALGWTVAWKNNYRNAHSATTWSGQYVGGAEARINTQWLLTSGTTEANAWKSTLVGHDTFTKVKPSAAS

B1: synthetic rVλ6Wil fibrils (other)
VL: NFLLTQPHSVSESPGKTVTISCTRSSGSIANNYVHWYQQRPGSSPTTVIFEDDHRPSGVPDRFSGSVDTSSNSASLTISGLKTEDEADYYCQSYDHNNQVFGGGTKLTVLG
notes: Amyloid fibril polymer of rVλ6Wil monomers; Used in suspension (pulldown), coupled to a CM-5 chip (SPR) or dried onto microplate wells; also called rVλ6Wil synthetic amyloid fibrils; rVλ6Wil fibril seed
binding result: no binding
